Assays:
human FcRn (human) [1] = molecular target: human FcRn (human) (UniProt P55899); experiment: MSD, pH 6 [cont'd]
human FcγRIIb (human) [2] = molecular target: human FcγRIIb (human) (UniProt P31994); experiment: MSD
[3] = molecular target: human FcγRIIa (H131 allele) (human) (UniProt P12318); experiment: MSD
[4] = molecular target: human FcγRIIa (R131 allele) (human) (UniProt P12318); experiment: MSD
human C1q (human) = human C1q (human) (UniProt P02745); experiment: MSD [cont'd]
[5] = molecular target: human FcγRIIIa (V158 allele) (human) (UniProt P08637); experiment: MSD [cont'd]
[6] = molecular target: human FcγRIIIa (F158 allele) (human) (UniProt P08637); experiment: MSD [cont'd]
[7] = molecular target: human FcγRIIIa (V158 allele) (human) (UniProt P08637); experiment: MSD
[8] = molecular target: human FcγRIIIa (F158 allele) (human) (UniProt P08637); experiment: MSD
human FcγRIIIb (human) [9] = molecular target: human FcγRIIIb (human) (UniProt O75015); experiment: MSD
[10] = molecular target: human FcγRIIIa (V158 allele) (human) (UniProt P08637)
human FcγRIIIb (human) [11] = molecular target: human FcγRIIIb (human) (UniProt O75015); experiment: MSD [cont'd]
human FcγRIIb (human) [12] = molecular target: human FcγRIIb (human) (UniProt P31994); experiment: MSD [cont'd]
human FcRn (human) [13] = molecular target: human FcRn (human) (UniProt P55899); experiment: MSD [cont'd]
[14] = molecular target: human FcγRIIa (H131 allele) (human) (UniProt P12318); experiment: MSD [cont'd]
[15] = molecular target: human FcγRIIa (R131 allele) (human) (UniProt P12318); experiment: MSD [cont'd]

Chain of human FcγRIIIa (F158 allele) (human) (P08637 17-208 limits assumed): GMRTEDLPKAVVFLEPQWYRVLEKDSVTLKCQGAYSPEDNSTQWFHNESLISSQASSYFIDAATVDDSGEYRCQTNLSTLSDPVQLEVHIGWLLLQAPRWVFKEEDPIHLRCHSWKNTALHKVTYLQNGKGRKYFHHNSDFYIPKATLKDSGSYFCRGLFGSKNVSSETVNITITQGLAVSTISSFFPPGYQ
Chain of human C1q (human) (P02745 23-245 limits assumed, chain 1 of 3): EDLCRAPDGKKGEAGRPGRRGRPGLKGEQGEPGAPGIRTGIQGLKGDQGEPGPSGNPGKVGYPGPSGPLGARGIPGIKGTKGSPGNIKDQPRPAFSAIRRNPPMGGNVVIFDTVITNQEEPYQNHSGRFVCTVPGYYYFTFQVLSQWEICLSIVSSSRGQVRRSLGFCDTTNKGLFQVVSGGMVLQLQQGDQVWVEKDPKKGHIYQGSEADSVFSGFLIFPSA
Chain of human C1q (human) (P02746 28-253 limits assumed, chain 2 of 3, further chain): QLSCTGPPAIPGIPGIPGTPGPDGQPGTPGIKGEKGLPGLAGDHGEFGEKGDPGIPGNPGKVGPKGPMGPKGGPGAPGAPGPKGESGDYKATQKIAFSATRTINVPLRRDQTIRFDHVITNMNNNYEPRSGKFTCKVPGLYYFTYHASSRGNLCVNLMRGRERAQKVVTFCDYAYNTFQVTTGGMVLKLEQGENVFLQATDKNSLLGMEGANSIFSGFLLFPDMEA
Chain of human C1q (human) (P02747 29-245 limits assumed, chain 3 of 3, further chain): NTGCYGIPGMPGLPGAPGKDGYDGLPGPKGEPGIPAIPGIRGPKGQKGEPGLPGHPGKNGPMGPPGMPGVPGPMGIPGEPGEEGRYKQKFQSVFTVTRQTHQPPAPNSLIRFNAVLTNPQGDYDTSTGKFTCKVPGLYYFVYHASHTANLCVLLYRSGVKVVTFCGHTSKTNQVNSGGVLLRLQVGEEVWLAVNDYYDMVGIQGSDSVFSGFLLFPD
Chain of human FcγRIIa (H131 allele) (human) (P12318 34-218 limits assumed): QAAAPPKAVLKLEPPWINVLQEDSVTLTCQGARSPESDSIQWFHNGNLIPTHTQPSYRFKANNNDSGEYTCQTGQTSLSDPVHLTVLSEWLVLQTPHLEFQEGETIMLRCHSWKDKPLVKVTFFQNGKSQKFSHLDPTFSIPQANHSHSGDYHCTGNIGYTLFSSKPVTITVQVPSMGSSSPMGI
Chain of human FcRn (human) (P55899 24-297 limits assumed, chain 1 of 2): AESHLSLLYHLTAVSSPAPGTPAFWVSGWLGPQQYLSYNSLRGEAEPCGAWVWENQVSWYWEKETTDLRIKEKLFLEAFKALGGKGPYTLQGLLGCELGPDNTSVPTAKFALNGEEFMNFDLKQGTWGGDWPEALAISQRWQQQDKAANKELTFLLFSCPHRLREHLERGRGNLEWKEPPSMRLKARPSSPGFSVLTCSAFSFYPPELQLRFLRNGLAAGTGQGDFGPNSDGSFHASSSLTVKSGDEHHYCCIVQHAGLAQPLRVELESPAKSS
Chain of human FcRn (human) (chain, as listed by the source limits assumed, chain 2 of 2): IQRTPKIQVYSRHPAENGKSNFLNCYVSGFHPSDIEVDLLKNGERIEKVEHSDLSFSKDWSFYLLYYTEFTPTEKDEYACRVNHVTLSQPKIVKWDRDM
Chain of human FcγRIIb (human) (P31994 43-217 limits assumed): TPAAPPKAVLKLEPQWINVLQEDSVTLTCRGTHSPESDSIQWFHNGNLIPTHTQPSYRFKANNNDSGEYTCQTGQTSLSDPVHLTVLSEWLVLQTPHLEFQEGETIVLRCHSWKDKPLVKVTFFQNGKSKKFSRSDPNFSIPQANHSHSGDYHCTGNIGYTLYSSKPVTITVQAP
Chain of human FcγRIIIa (V158 allele) (human) (P08637 17-208 F176V limits assumed): as the sequence (P08637 17-208 limits assumed) above, with F160V counted along it
Chain of human FcγRIIa (R131 allele) (human) (P12318 34-218 H167R limits assumed): as the sequence (P12318 34-218 limits assumed) above, with H134R counted along it
Chain of human FcγRIIIb (human) (O75015 17-200 limits assumed): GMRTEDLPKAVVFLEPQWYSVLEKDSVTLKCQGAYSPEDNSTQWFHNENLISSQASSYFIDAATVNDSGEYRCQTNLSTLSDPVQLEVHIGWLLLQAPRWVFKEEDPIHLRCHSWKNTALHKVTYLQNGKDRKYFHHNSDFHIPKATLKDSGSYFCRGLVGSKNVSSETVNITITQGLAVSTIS

Substance	fold-change to WT Fc (human FcRn (human) [1]) [fold]	fold-change to WT Fc (human FcγRIIb (human) [2]) [fold]	fold-change to WT Fc [3] [fold]	fold-change to WT Fc [4] [fold]	fold-change to WT Fc (human C1q (human)) [fold]	fold-change to WT Fc [5] [fold]	fold-change to WT Fc [6] [fold]	further results
G236L (antibody)	0.949	0.395	0.435	1.42	1.48	0.083	0.345	
G236A_R292P_G446E (antibody)	0.851	0.512	4.54	0.986	0.099	0.415	0.552	
R292P_G446E (antibody)	0.884	0.562	0.628	0.45	0.391	0.916	0.779	
G236A_Y300L-afuc (antibody)								fold-change (reference not given) [7]: 13.7 fold; fold-change (reference not given) [8]: 30.1 fold; fold-change (reference not given) (human FcγRIIIb (human) [9]): 2.6 fold; fold-change (reference not given) (human FcγRIIb (human) [2]): 0.9 fold; fold-change (reference not given) [3]: 14.9 fold; fold-change (reference not given) [4]: 4 fold; FcγR reporter signaling, fold to wt-fucose [cont'd] [10]: 3.49 fold; fold to wt-fucose [5]: 13.7 fold; fold to wt-fucose [6]: 30.1 fold; fold to wt-fucose (human FcγRIIIb (human) [11]): 2.55 fold; fold to wt-fucose (human FcγRIIb (human) [12]): 0.93 fold; fold to wt-fucose (human FcRn (human) [13]): 0.92 fold; fold to wt-fucose [14]: 14.9 fold; fold to wt-fucose [15]: 3.95 fold
C220P (antibody)	0.991	1.21	1.17	1.04	0.761	1.33	0.99	
R292P (antibody)	0.898	0.541	0.577	0.454	0.549	0.917	0.79	fold-change vs wt (human FcγRIIb (human) [12]): 0.54 fold; fold-change vs wt [14]: 0.58 fold; fold-change vs wt [15]: 0.45 fold
G236A_R292P_Y300L-afuc (antibody)								fold-change (reference not given) [7]: 9.1 fold; fold-change (reference not given) [8]: 19.7 fold; fold-change (reference not given) (human FcγRIIIb (human) [9]): 1.8 fold; fold-change (reference not given) [3]: 11.2 fold; fold-change (reference not given) [4]: 2.2 fold
G236A_R292P_A431G (antibody)	0.674	0.511	5.21	0.939	0.1	0.394	0.569	
A330L_I332E-afuc (antibody)								fold to wt-fucose [5]: 37.8 fold; fold to wt-fucose [6]: 191 fold; fold to wt-fucose (human FcγRIIIb (human) [11]): 37.4 fold; fold to wt-fucose (human FcγRIIb (human) [12]): 0.61 fold; fold to wt-fucose [14]: 0.42 fold; fold to wt-fucose [15]: 0.53 fold
G236S-afuc (antibody)								FcγR reporter signaling, fold to wt-fucose [cont'd] [10]: 2.86 fold; fold to wt-fucose [5]: 4.63 fold; fold to wt-fucose [6]: 10.6 fold; fold to wt-fucose (human FcγRIIIb (human) [11]): 1.37 fold; fold to wt-fucose (human FcγRIIb (human) [12]): 1.08 fold; fold to wt-fucose (human FcRn (human) [13]): 0.85 fold; fold to wt-fucose [14]: 7.37 fold; fold to wt-fucose [15]: 4.39 fold
G446E (antibody)	1.06	1.17	1.11	1.05	0.84	1.42	1.1	
G236A_L328V_Q295E-afuc (antibody)								fold-change (reference not given) [7]: 7.4 fold; fold-change (reference not given) [8]: 11.8 fold; fold-change (reference not given) (human FcγRIIIb (human) [9]): 2.4 fold; fold-change (reference not given) [3]: 6.7 fold; fold-change (reference not given) [4]: 9.6 fold
A431G (antibody)	0.916	1.5	1.76	1.38	0.824	1.61	1.23	
G236A_A330L_I332E (antibody)	0.937	0.605	3.6		-0.004			
